This is an account of results in paper PMC5082683 (PLoS Pathogens, 2016).

The assay has as its target recombinant ectodomain of Gc (rGc) from Hantaan virus strain 76-118 (Hantaan virus strain 76-118, UniProt P08668). The experiment in a line: SEC-MALS; Gc mixed with an excess of scFv A5, Tris pH 8. The following applies: both partners purified. For orientation: In gel filtration, larger molecules generally elute earlier.

Usually stoichiometry N stands for a count of units in the complex or per binding partner.

B1: scFv A5 (scFv, V domains shown)
VH: QVQLQESGPGLVKPSETLSLTCVVSGGSISSSNWWSWVRQPPGKGLEWIGEIYHSGSPNYNPSLKSRVTISVDKSKNQFSLKLSSVTAADTAVYYCARQMRQWGQGTLVTVSS
VL: SSELTQDPAVSVALGQTVRITCQGDSLRSYYASWYQQKPGQAPVLVIYGKNNRPSGIPDRFSGSSSGNTASLTITGAQAEDEADYYCNSRDSSGNHNVFGGGTKLTVL
notes: also called human single-chain variable domain antibody fragment A5
As for B1, the “stoichiometry N” value was 1.
